Data from paper PMC5614548, “Effects of isoleucine 135 side chain length on the cofactor donor-acceptor distance within F420H2:NADP^+ oxidoreductase: A kinetic analysis^” (Biochemistry and Biophysics Reports, 2016).
Positions count from the first letter of the chain named. In names and notes the source's numbering stands. Where two headings read alike, the source gives them in different places.

B1: Fno (F420H2:NADP+ oxidoreductase) (Archaeoglobus fulgidus DSM 4304; I135V) (protein)
chain: MRVALLGGTGNLGKGLALRLATLGHEIVVGSRREEKAEAKAAEYRRIAGDASITGMKNEDAAEACDIAVLTIPWEHAIDTARDLKNILREKIVVSPLVPVSRGAKGFTYSSERSAAEIVAEVLESEKVVSALHTVPAARFANLDEKFDWDVPVCGDDDESKKVVMSLISEIDGLRPLDAGPLSNSRLVESLTPLILNIMRFNGMGELGIKFL
B2: Fno (F420H2:NADP+ oxidoreductase) (Archaeoglobus fulgidus DSM 4304; I135G) (protein)
chain: B1 chain with V135G
B3: Fno (F420H2:NADP+ oxidoreductase) (Archaeoglobus fulgidus DSM 4304; I135A) (protein)
chain: B1 chain with V135A

Legend:
[1] = biological target: Fno (F420H2:NADP+ oxidoreductase) (Archaeoglobus fulgidus, UniProt O29370, I135A); test: tryptophan fluorescence titration, fit with Hill coefficient; format: binding
Text: (§1) tryptophan fluorescence titration, fit with Hill coefficient on Fno (F420H2:NADP+ oxidoreductase)

[2] = biological target: Fno (F420H2:NADP+ oxidoreductase) (Archaeoglobus fulgidus, UniProt O29370, I135G); test: as above; format: binding
Text: as §1

[3] = biological target: Fno (F420H2:NADP+ oxidoreductase) (Archaeoglobus fulgidus, UniProt O29370, I135V); test: as above; format: binding
Text: as §1

purified protein [4] = substrate: NC(=O)C1=CN([C@@H]2O[C@H](COP(=O)(O)OP(=O)(O)OC[C@H]3O[C@@H](n4cnc5c(N)ncnc54)[C@H](OP(=O)(O)O)[C@@H]3O)[C@@H](O)[C@H]2O)C=CC1; test: purified protein; format: biochemical, Archaeoglobus fulgidus; conditions: 25 µM FO, 50 mM MES/NaOH pH 6.5, 22 °C, phase 1 of biphasic fit, negative cooperativity
purified protein [5] = substrate: O=c1nc2n(C[C@H](O)[C@H](O)[C@H](O)CO)c3cc(O)ccc3cc-2c(=O)[nH]1; test: purified protein; format: biochemical, Archaeoglobus fulgidus; conditions: 600 µM NADPH, 50 mM MES/NaOH pH 6.5, 22 °C

Sequence of Fno (F420H2:NADP+ oxidoreductase) (Archaeoglobus fulgidus, UniProt O29370, I135A) (O29370 whole entry I135A, one chain of several): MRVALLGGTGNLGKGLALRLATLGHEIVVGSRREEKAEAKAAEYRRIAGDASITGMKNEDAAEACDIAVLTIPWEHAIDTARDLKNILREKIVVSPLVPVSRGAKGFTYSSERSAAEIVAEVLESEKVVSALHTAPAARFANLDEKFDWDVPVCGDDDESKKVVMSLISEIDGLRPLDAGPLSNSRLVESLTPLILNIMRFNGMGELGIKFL
Sequence of Fno (F420H2:NADP+ oxidoreductase) (Archaeoglobus fulgidus, UniProt O29370, I135G) (O29370 whole entry I135G, one chain of several): as the sequence (O29370 whole entry I135A, one chain of several) above, with A135G counted along it

Molecule | Km (purified protein [5]) [µM] | kcat (purified protein [5]) [s⁻¹] | kcat/Km (purified protein [5]) [M⁻¹ s⁻¹] | also measured
NC(=O)C1=CN([C@@H]2O[C@H](COP(=O)(O)OP(=O)(O)OC[C@H]3O[C@@H](n4cnc5c(N)ncnc54)[C@H](OP(=O)(O)O)[C@@H]3O)[C@@H](O)[C@H]2O)C=CC1 [NADPH] |  |  |  | Kd ([1]; read-out: Kd^NADPH): 6.7 ± 0.7 nM; Kd ([2]; read-out: Kd^NADPH): 1.5 ± 0.1 nM; Kd ([3]; read-out: Kd^NADPH): 7.4 ± 1.1 nM
O=c1nc2n(C[C@H](O)[C@H](O)[C@H](O)CO)c3cc(O)ccc3cc-2c(=O)[nH]1 [FO] |  |  |  | Kd ([1]; read-out: Kd^FO): 5.6 ± 0.2 nM; Kd ([2]; read-out: Kd^FO): 6.9 ± 0.3 nM; Kd ([3]; read-out: Kd^FO): 7.5 ± 0.9 nM
B1 | 3.7 ± 0.4 | 1.8 ± 0.1 | 490000 ± 55000 | Km (purified protein [4]): 0.7 ± 0.1 µM; kcat (purified protein [4]): 1.5 ± 0.09 s⁻¹; kcat/Km (purified protein [4]): 2.1e+06 ± 340000 M⁻¹ s⁻¹
B2 | 3.6 ± 0.4 | 0.7 | 200000 | 
B3 | 3.6 ± 0.5 | 1.6 ± 0.1 | 450000 ± 66000 | 
